Experimental data from patent publication US20240247080A1, “GLP1/GIP/NPY2 RECEPTOR TRIPLE AGONISTS” (Boehringer Ingelheim International GmbH, priority 2022, published 2024).

T1: human neuropeptide Y2 receptor (human, UniProt P49146 1-381)
T1 sequence (looked up): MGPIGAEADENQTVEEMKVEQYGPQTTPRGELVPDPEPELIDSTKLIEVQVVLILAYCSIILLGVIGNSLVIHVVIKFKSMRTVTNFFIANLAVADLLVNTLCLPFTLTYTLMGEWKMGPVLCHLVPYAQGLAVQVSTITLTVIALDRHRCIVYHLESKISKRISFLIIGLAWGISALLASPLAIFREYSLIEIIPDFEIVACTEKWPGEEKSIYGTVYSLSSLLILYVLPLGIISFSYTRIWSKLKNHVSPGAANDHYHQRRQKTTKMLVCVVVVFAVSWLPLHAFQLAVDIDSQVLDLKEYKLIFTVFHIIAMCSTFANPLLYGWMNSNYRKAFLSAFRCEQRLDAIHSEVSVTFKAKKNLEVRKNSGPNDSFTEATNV

T2: human GIP receptor (human, UniProt P48546 22-466)
T2 sequence (looked up): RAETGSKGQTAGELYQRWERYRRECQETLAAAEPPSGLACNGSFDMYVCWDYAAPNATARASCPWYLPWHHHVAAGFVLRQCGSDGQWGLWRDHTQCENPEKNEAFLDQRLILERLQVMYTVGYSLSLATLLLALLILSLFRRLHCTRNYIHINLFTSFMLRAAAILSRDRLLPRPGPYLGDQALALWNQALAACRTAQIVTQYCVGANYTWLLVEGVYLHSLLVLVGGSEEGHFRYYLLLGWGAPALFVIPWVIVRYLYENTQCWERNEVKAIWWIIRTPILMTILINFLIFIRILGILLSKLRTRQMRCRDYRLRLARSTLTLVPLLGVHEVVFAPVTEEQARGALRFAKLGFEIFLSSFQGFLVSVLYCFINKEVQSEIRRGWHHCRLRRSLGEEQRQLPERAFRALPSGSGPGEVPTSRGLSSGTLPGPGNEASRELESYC


Columns and labels:
Assay in all cases: cell-based or functional assay
[1] = target: T1, human neuropeptide Y2 receptor
human GIP receptor = target: T2, human GIP receptor
human GLP-1 receptor = human GLP-1 receptor (human, UniProt P43220 24-463)

Binder | EC50 CreLuc hNPY2R 0.5% hP [1] [nM] | EC50 CreLuc hNPY2R 100% hP [1] [nM] | EC50 CreLuc hGIPR 0.5% hP (human GIP receptor) [nM] | EC50 CreLuc hGIPR 100% hP (human GIP receptor) [nM] | EC50 CreLuc hGLP1R 0.5% hP (human GLP-1 receptor) [nM] | EC50 CreLuc hGLP1R 100% hP (human GLP-1 receptor) [nM]
YXEGTFTSDYSIXLEKQAQXAFVQWLIKGGPSSGASLRHYYNWLTRQRY (Aib at 2, 13, 20; K28 side chain: C18DA-gGlu-gGlu-gGlu-gGlu-gGlu-gGlu-eLys; C-terminal NH2) [Compound 170] | 19.2 | 33.2 | 0.24 | 1.15 | 0.09 | 0.98
YXEGTFTSDYSIXLEKQAQXAFVEWLIKGGPSSGATLRHYYNWLTRQRY (Aib at 2, 13, 20; K28 side chain: C20DA-gGlu-gGlu-gGlu-gGlu-gGlu-gGlu-eLys; C-terminal NH2) [Compound 91] | 16.2 | 53.1 | 0.21 | 1.72 | 0.17 | 4.16
YXEGTFTSDYSILLEKQAQXAFVEWLIKGGPSSGASLRHYYNWLTRQRY (Aib at 2, 20; K28 side chain: C20DA-gGlu-Glu-gGlu-gGlu-gGlu-gGlu-eLys; C-terminal NH2) [Compound 104] | 13.4 | 50.7 | 0.06 | 0.6 | 0.09 | 2.06
YXEGTFTSDYSIXLEKQAQXAFVQWLIKGGPEEGASLRHYYNWLTRQRY (Aib at 2, 13, 20; K28 side chain: C20DA-gGlu-gGlu-gGlu-gGlu-gGlu-gGlu-eLys; C-terminal NH2) [Compound 89] | 14.8 | 42.4 | 1.01 | 1.7 | 0.25 | 8.9
YXEGTFTSDYSIXLEDQAQXAFVEWLIKGGPSSGASLRHYYNWLTRQRY (Aib at 2, 13, 20; K28 side chain: C20DA-gGlu-gGlu-gGlu-gGlu-gGlu-gGlu-eLys; C-terminal NH2) [Compound 90] | 18.4 | 71.9 | 1.03 | 6.75 | 0.3 | 5.39
YXEGTFTSDYSIXLEAQAQXAFVEWLIKGGPSSGASLRHYYNWLTRQRY (Aib at 2, 13, 20; K28 side chain: C20DA-gGlu-gGlu-gGlu-gGlu-gGlu-gGlu-eLys; C-terminal NH2) [Compound 102] | 24.9 | 80.7 | 0.98 | 4.01 | 0.33 | 3.48
YXEGTFTSDYSIXLEKQAQXAFVEWLIKGGPSSGVSLRHYYNWLTRQRY (Aib at 2, 13, 20; K28 side chain: C20DA-gGlu-gGlu-gGlu-gGlu-gGlu-gGlu-eLys; C-terminal NH2) [Compound 96] | 15.5 | 44.8 | 0.19 | 1.07 | 0.14 | 2.12
YXEGTFTSDYSIXLEKQAQXAFVEWLIKGGPSSGASLRHYINWLTRQRY (Aib at 2, 13, 20; K28 side chain: C20DA-gGlu-gGlu-gGlu-gGlu-gGlu-gGlu-eLys; C-terminal NH2) [Compound 106] | 20.5 | 74.2 | 0.26 | 2.17 | 0.14 | 3.56
YXEGTFTSDYSIXLEKQAQXAFVEWLIKGGPSSAASLRHYYNWLTRQRY (Aib at 2, 13, 20; K28 side chain: C20DA-gGlu-gGlu-gGlu-gGlu-gGlu-gGlu-eLys; C-terminal NH2) [Compound 98] | 15.1 | 64.2 | 0.44 | 3.41 | 0.31 | 8.22
YXEGTFTSDYSIXLEKQAQXAFVEWLIKGGPSEYESLRHYYNWLTRQRY (Aib at 2, 13, 20; K28 side chain: C20DA-gGlu-gGlu-gGlu-gGlu-gGlu-gGlu-eLys; C-terminal NH2) [Compound 93] | 15.3 | 85.7 | 0.14 | 2.35 | 0.22 | 8.97
YXEGTFTSDYSIXLEKQAQXAFVEWLIKGGPSSGISLRHYYNWLTRQRY (Aib at 2, 13, 20; K28 side chain: C20DA-gGlu-gGlu-gGlu-gGlu-gGlu-gGlu-eLys; C-terminal NH2) [Compound 94] | 12.3 | 40.2 | 0.22 | 1.04 | 0.09 | 1.98
